We go through three molecules from paper PMC9557913 (Molecular cell, 2022).

One data set addresses T1, MCU, Q8NE86.
T1 chain: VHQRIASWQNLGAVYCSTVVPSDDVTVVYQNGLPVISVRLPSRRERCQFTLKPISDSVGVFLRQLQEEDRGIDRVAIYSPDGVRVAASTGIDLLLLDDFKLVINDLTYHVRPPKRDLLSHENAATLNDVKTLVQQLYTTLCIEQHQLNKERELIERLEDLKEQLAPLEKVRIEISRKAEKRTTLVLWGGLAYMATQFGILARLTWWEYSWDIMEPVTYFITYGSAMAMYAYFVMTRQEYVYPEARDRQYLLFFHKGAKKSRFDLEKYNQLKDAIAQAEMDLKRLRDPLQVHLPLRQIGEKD
Description: co-IP. As to conditions: remark: other sources report otherwise.

The data set “SEC” concerns the molecule itself. Description: SEC.

B1: disulfide-connected MICU1-MICU1 homodimer (MICU1-1D), Q9BPX6 34-476 (complex)
chain: MMVAFLGASAVTASTGLLWKRAHAESPPCVDNLKSDIGDKGKNKDEGDVCNHEKKTADLAPHPEEKKKKRSGFRDRKVMEYENRIRAYSTPDKIFRYFATLKVISEPGEAEVFMTPEDFVRSITPNEKQPEHLGLDQYIIKRFDGKKISQEREKFADEGSIFYTLGECGLISFSDYIFLTTVLSTPQRNFEIAFKMFDLNGDGEVDMEEFEQVQSIIRSQTSMGMRHRDRPTTGNTLKSGLCSALTTYFFGADLKGKLTIKNFLEFQRKLQHDVLKLEFERHDPVDGRITERQFGGMLLAYSGVQSKKLTAMQRQLKKHFKEGKGLTFQEVENFFTFLKNINDVDTALSFYHMAGASLDKVTMQQVARTVAKVELSDHVCDVVFALFDCDGNGELSNKEFVSIMKQRLMRGLEKPKDMGFTRLMQAMWKCAQETAWDFALPKQ
modifications: here or on the partner: intersubunit disulfide through C463
B1 had a fold co-precipitated with MCU, against MICU1-2D in the data set with MCU, Q8NE86 of 2 fold.

B2: purified MBP-fused human MICU1 (MICU1-1ND) (natural protein, UniProt Q9BPX6 34-476, looked up)
chain: MMVAFLGASAVTASTGLLWKRAHAESPPCVDNLKSDIGDKGKNKDEGDVCNHEKKTADLAPHPEEKKKKRSGFRDRKVMEYENRIRAYSTPDKIFRYFATLKVISEPGEAEVFMTPEDFVRSITPNEKQPEHLGLDQYIIKRFDGKKISQEREKFADEGSIFYTLGECGLISFSDYIFLTTVLSTPQRNFEIAFKMFDLNGDGEVDMEEFEQVQSIIRSQTSMGMRHRDRPTTGNTLKSGLCSALTTYFFGADLKGKLTIKNFLEFQRKLQHDVLKLEFERHDPVDGRITERQFGGMLLAYSGVQSKKLTAMQRQLKKHFKEGKGLTFQEVENFFTFLKNINDVDTALSFYHMAGASLDKVTMQQVARTVAKVELSDHVCDVVFALFDCDGNGELSNKEFVSIMKQRLMRGLEKPKDMGFTRLMQAMWKCAQETAWDFALPKQ
For the molecule B2, the “stoichiometry N” value in the data set “SEC” amounted to 2.

B3: purified human MICU2 (MICU2-2ND) (natural protein, UniProt Q8IYU8 23-434, looked up)
chain: AVSRQAVRSPGPLAAAVAGAALAGAGAAWHHSRVSVAARDGSFTVSAQKNVEHGIIYIGKPSLRKQRFMQFSSLEHEGEYYMTPRDFLFSVMFEQMERKTSVKKLTKKDIEDTLSGIQTAGCGSTFFRDLGDKGLISYTEYLFLLTILTKPHSGFHVAFKMLDTDGNEMIEKREFFKLQKIISKQDDLMTVKTNETGYQEAIVKEPEINTTLQMRFFGKRGQRKLHYKEFRRFMENLQTEIQEMEFLQFSKGLSFMRKEDFAEWLLFFTNTENKDIYWKNVREKLSAGESISLDEFKSFCHFTTHLEDFAIAMQMFSLAHRPVRLAEFKRAVKVATGQELSNNILDTVFKIFDLDGDECLSHEEFLGVLKNRMHRGLWVPQHQSIQEYWKCVKKESIKGVKEVWKQAGKGLF
As for B3, the “stoichiometry N” value in the data set “SEC” is 2.
